The text below walks through data of patent US20240182864A1, “NOVEL CHEMICAL COMBINATIONS AND METHODS OF USE THEREOF, TOWARDS DIFFERENTIATION OF HUMAN PROGENITOR CELLS INTO FUNCTIONAL BETA CELLS” (Salk Institute for Biological Studies, priority 2021, published 2024).

In the assay the test system is H1 hESCs. In words: Generation of pancreatic progenitors (stages 1-4) and PP 3D clusters, flow cytometry for PDX1/NKX6.1. The assay is classed as cell-based, human. The protocol:
hESCs were maintained as feeder-free in mTeSR™1 (STEMCELL Technologies Inc.) according to the manufacturer's instructions. Before differentiation, adherent hESCs (at ˜90% confluence) were rinsed with PBS and then incubated with Accutase (Millipore) for 6-8 min at 37° C. Dissociated single cells were rinsed twice with DMEM/F12 and spun at 300 g for 3 min. The resulting cells were re-suspended in mTeSR™1 which was supplied with 10μM Y27632 (Sigma-Aldrich), and seeded on 1:30 diluted Matrigel (BD Biosciences)-coated dishes at a density of 55,000 cells/cm^2. The next day, the medium was exchanged for mTeSR™MI and maintained for one more day prior to differentiation initiation.
Stage 1: Definitive Endoderm (3 days). […] Each 800 ml MS12 medium was made with 744 ml MCDB131 medium (ThermoFisher), 3.2 ml 45% glucose (Sigma), 20 ml 20% fat-acid free BSA, and 16 ml 7.5% sodium bicarbonate (Gibco).
Stage 2: Posterior Foregut (3 days): after PBS rinse, cells are exposed to MS12 medium with KGF (Peprotech, 50 ng/ml), B27 (Gibco, 100×), Vitamin C (Vc, 0.25 mM, sigma) and dorsomorphin (0.75 μM). Cells were fed with fresh medium daily.
Stage 3: Pancreatic endoderm (3 days): After PBS rinse, cells were exposed to DMEM with B27 (100×), retinoic acid (RA, 2 μM, Sigma), Noggin (100 ng/ml, Peprotech), SANTI (0.25 μM, sigma), Vitamin C (Vc, 0.25 mM, sigma), Pen/Strep (100×, Gibco) and Glutamax (100×, Gibco). Cells were fed with fresh medium every other day.
Stage 4: Pancreatic progenitor (3-4 days): After PBS rinse, cells were exposed to DMEM with B27 (100×), EGF (100 ng/ml, Peprotech)+Nicotinamide (NICO, 10 mM; Sigma)+Noggin (100ng/ml)+Vc (0.25 mM). Cells were fed with fresh medium every other day.
V-bottom plate based aggregation: stage-4 cells were rinsed with PBS and then incubated with Accutase (Millipore) for 10-15 min at 37° C. Dissociated single cells were rinsed twice with DMEM/F12 and spun at 300 g for 3 min. The resulting cells were re-suspended in an aggregation medium supplied with 10μM Y27632 (Sigma-Aldrich). Cell solution with 0.1-0.4 (according to experimental design) million cells was added into each well of V-bottom 96-well plate, followed by a spun at 300 g for 3 min. The plate was put into 37° C. incubator for 8-12 hours to form clusters. Aggregation medium was made of V4b-Medium+heparin (Sigma, H3149, 10 μg/ml)+ZnSO4 (10 μM, sigma, Z0251)+LDN193189 (LDN, Tocris, 100 nM)+T3 (1 μM, Sigma, T6397)+RA ([…])+SANTI (0.25 μM: Tocris)+GABA (1 mM, Sigma)+human EGF (100 ng/ml, Peprotech)+NICO (10 mM)+VC (0.25 mM). V4b-Medium (800 ml) was made of 360 ml MCDB 131 medium+180 ml F12 medium+180 ml KO-DMEM medium+3.9 ml Glucose (45%, Sigma)+80ml 20% FF-BSA+16 ml Sodium Bicarbonate (7.5%)+4 ml ITX+8 ml Pen/Strep+8ml Glutamax: all items were purchased from Thermo Fisher Scientific unless otherwise indicated.
Single-cell suspension from cell cultures: Differentiated hESC cultures were rinsed with PBS and then incubated with 0.25% trypsin-EDTA (Life Technologies) at 37° C. for 1-3 minutes. The trypsin was neutralized with MEF medium. The dissociated cells were rinsed twice in PBS or DMEM/F12 medium for further analysis. For intracellular antibody staining, single cells were fixed in 200 μL of BD Cytofix/Cytoperm Buffer (BD Biosciences) at 4° C. for 20 minutes followed by three washes in BD Perm/Wash Buffer. Fixed cells were incubated in 150 μL of primary antibody buffer at 4° C. for 1 hour, followed by 30 minutes in a secondary antibody (if there is a secondary antibody) buffer after being rinsed twice in Perm/Wash Buffer. Stained cells were washed twice in Perm/Wash Buffer prior to analyses. The acquired data were analyzed by FlowJo.
Efficient generation of PP 3D-clusters is responsible for generating functional βcells. An hPSC reporter line with NKX6.1-NLS-GFP has been generated by homologous recombination (FIG. 1A and data not shown), which aids in the study of functional β cell production protocols. […]
A general note: A flow cytometer gives signals particle by particle.

Where [1] appears, read: Constant high-dose of Activin-A (115-115-115 ng/ml day 1-day 2-day 3).
Setting [2] is: Constant low-dose of Activin-A (100-100-100 ng/ml day 1-day 2-day 3).
Where [3] appears, read: Decreasing gradient dose of Activin-A (115-110-100 ng/ml day 1-day 2-day 3).

B1: Activin-A: a TGFβ family member used at stage 1 (protein, UniProt P08476 311-426, looked up)
Inhibin beta A chain: GLECDGKVNICCKKQFFVSFKDIGWNDWIIAPSGYHANYCEGECPSHIAGTSGSSLSFHSTVINHYRMRGHSPFANLKSCCVPTKLRPMSMLYYDDGQNIIKKDIQNMIVEECGCS
modifications: Inhibin beta A chain
Take B1: the NKX6.1-positve cells reads like this: under setting [1], ~20%-50%; under setting [2], ~15%-50%; under setting [3], around 80%. The PDX1-positve cells is around 90% under setting [1], ~50%-80% under setting [2] and around 93% under setting [3]. Moreover, the PDX1-postive/NKX6.1-positve cells was ~20%-50% under setting [1], ~15%-50% under setting [2] and around 80% under setting [3]. For the same molecule, under “constant low-dose Activin-A”, the “cell density and cell heterogeneity at stage 4” value was “appropriate cell density but resulting in high cell heterogeneity at stage 4”. The “cell proliferation and cell density” value (high-dose Activin-A) was “severely reduced cell proliferation and resulted in suboptimal cell density”.
